Experimental data: patent US6713276B2, “Modulation of Aβ levels by β-secretase BACE2” (Scios, Inc., priority 2000, dated 2004)

Key:
Type in all cases: cell-based, human
[1] = test system: APP751sw processing in HEK293T cells; assay: pulse-chase / pulse-labeling and immunoprecipitation of APP CTFs, Aβ and p3 in HEK293T cells
Procedure: Forty eight hours post-transfection, HEK293T cells were labeled for 15 minutes with 200 μCi Promix L [^35S] in vitro cell labeling mix (Amersham) and chased for up to 90 minutes according to standard procedures. APP CTFs were immunoprecipitated with antibodies 369 (Cai et al., Science 259: 514-516 [1993]). For immunoprecipitations of Aβ and p3 from conditioned medium, HEK293T cells were labeled for 5 hours with 300 μCi Promix L [^35S] in vitro cell labeling mix (Amersham) 48 hours post-transfection. Aβ40 and Aβ42 as well as the corresponding p3 species were immunoprecipitated with monoclonal antibodies 1702.1 and 108.1, respectively (Higaki et al., J. Med. Chem. 42: 3889-3898 [1999]).
To analyze the metabolism of APP as a consequence of BACE or BACE2 overexpression we performed a parallel pulse-chase experiment (FIG. 2e). HEK293T cells transfected as above were pulse-labeled and chased for up to 90 minutes and APP and CTFs were immunoprecipitated. […] An alternative β-secretase related cleavage product (β′-CTF) was also formed consistent with previous reports (Vassar et al., Science [1999] ibid; Higaki et al., Neuron 14: 651-659 [1995]). Consistent with its β-secretase activity, BACE2 overexpression led to a significant initial increase in β-CTF levels compared to mock-transfected cells. […] In general, BACE2 might have increased the overall APP turnover. To determine whether BACE affected γ-secretase activity, we determined whether p3 could be formed. We transfected HEK293 cells as in FIG. 2e and labeled them for 5 hours with Promix L [^35S]. Aβ from conditioned medium was then precipitated with antibodies directed against the C-terminal residues of Aβ40 and Aβ42, respectively, that also recognize p3 (FIG. 2f). […] Taken together, BACE2 expression leads to alternative processing of APP that precludes Aβ formation.

[2] = test system: APP751sw processing in SK-N-MC cells; assay: co-transfection with APP751sw in SK-N-MC neuroblastoma cells, ELISA of conditioned medium; conditions: co-transfected with APP751sw
Procedure: (§1) Expression vectors containing BACE and BACE2 cDNAs were transfected into HEK293T cells in the presence of APP751sw or CT100 (Shoji et al., Science 258: 126-129 [1992]; Lichtenthaler et al., Proc. Natl. Acad. Sci. USA 96: 3053-3058 [1999]). Transfections were performed in 24 well plates using Lipofectamine Plus (Gibco/BRL, Bethesda, Md.) and DNA concentrations were kept constant by including non-specific DNA. Expression plasmids were tested for BACE and BACE2 expression by Western blotting. Cell culture supernatants were collected 48 hours and 72 hours post-transfection, and assayed for α-NTF, β-NTF and Aβ formation. β-NTF measurement was performed as described below. α-NTF was captured like β-NTF but was detected with biotinylated 2H3 (Johnson-Wood et al., Proc. Nati. Acad. Sci. USA 94: 1550-1555 [1997]). Aβ levels were determined by an ELISA using monoclonal antibodies 266 for capture and biotinylated 3D6 for detection (see Johnson-Wood et al., [1997] ibid for antibody epitope description). Aβ42, in contrast, was captured using 21F 12 and detected with biotinylated 3D6. […]
We further assessed the modulatory effect of BACE2 on Aβ formation using a human neuroblastoma cell line, SK-N-MC.

[3] = test system: CT100 (C-terminal 100 amino acids of APP) processing in HEK293T cells; assay: co-transfection with CT100 in HEK293T cells, ELISA, Western blot, pulse-chase; conditions: for CTFs derived from CT100 (α-like CTF): HEK293 cells, CT100, Western blot and pulse-chase 90 minutes
Procedure: as §1, with “3D6. Cell extracts prepared 72 hour post-transfection were separated by SDS-PAGE (Novex) and probed with CT695 (Zymed) for APP and CTFs as well as with an Aβ specific monoclonal antibody WO2 (kindly provided by K. Beyreuther; Ida et al., J. Biol. Chem. 271: 22908-22914 [1996]).” for “3D6.”
This effect prompted investigation into whether β-secretase cleavage was required for Aβ suppression. The effects of BACE2 on the metabolism of the C-terminal 100 amino acids of APP (CT100), a construct that mimics prior β-secretase cleavage (Shoji et al., Science 258: 126-129 [1992]), was analyzed. […] Cells were readiolabeled with ^35S-methionine/cysteine for 15 minutes after which the medium containing radiolabel was removed and replaced with standard medium. […] Over this 90-minute period, samples were taken and assessed for CTFs by immunoprecipitation. […]

[4] = HEK293 cells, labeled for 5 hours, conditioned medium

B1: BACE2: human aspartyl protease, close homolog of BACE (SEQ ID NO: 2), expressed from pcDNA3.1(−)/BACE2 in transfected cells (protein)
chain: MGALARALLLPLLAQWLLRAAPELAPAPFTLPLRVAAATNRVVAPTPGPGTPAERHADGLALALEPALASPAGAANFLAMVDNLQGDSGRGYYLEMLIGTPPQKLQILVDTGSSNFAVAGTPHSYIDTYFDTERSSTYRSKGFDVTVKYTQGSWTGFVGEDLVTIPKGFNTSFLVNIATIFESENFFLPGIKWNGILGLAYATLAKPSSSLETFFDSLVTQANIPNVFSMQMCGAGLPVAGSGTNGGSLVLGGIEPSLYKGDIWYTPIKEEWYYQIEILKLEIGGQSLNLDCREYNADKAIVDSGTTLLRLPQKVFDAVVEAVARASLIPEFSDGFWTGSQLACWTNSETPWSYFPKISIYLRDENSSRSFRITILPQLYIQPMMGAGLNYECYRFGISPSTNALVIGATVMEGFYVIFDRAQKRVGFAASPCAEIAGAAVSEISGPFSTEDVASNCVPAQSLSEPILWIVSYALMSVCGAILLVLIVLLLLPFRCQRRPRDPEVVNDESSLVRHRWK
APP CTF turnover (β-CTF, β′-CTF, α-CTF) ([1]; HEK293T, APP751sw, 15 min pulse, chase up to 90 minutes): strong accumulation of a cleavage product that based on size and gel migration corresponded to α-CTF | formation of Aβ40 and Aβ42 (immunoprecipitation) [1, 4]: interfered with the formation of both Aβ40 and Aβ42 | p3 formation [1, 4]: p3 levels were not significantly affected | Aβ in conditioned medium [2]: significant reduction of Aβ | β-NTF in conditioned medium [2]: showed β-secretase activity in vivo | total Aβ and Aβ42 levels in conditioned medium ([3]; HEK293T, co-transfected with CT100): dramatic suppression of total Aβ as well as Aβ42 levels | CTFs derived from CT100 (α-like CTF) [3]: accumulation of the α-like CTF

B2: BACE2 D110A: single D110A BACE2 mutant of a critical aspartate residue, made by site-directed mutagenesis (protein)
chain: ALEPALASPAGAANFLAMVDNLQGDSGRGYYLEMLIGTPPQKLQILVATGSSNFAVAGTPHSYIDTYFDTERSSTYRSKGFDVTVKYTQGSWTGFVGEDLVTIPKGFNTSFLVNIATIFESENFFLPGIKWNGILGLAYATLAKPSSSLETFFDSLVTQANIPNVFSMQMCGAGLPVAGSGTNGGSLVLGGIEPSLYKGDIWYTPIKEEWYYQIEILKLEIGGQSLNLDCREYNADKAIVDSGTTLLRLPQKVFDAVVEAVARASLIPEFSDGFWTGSQLACWTNSETPWSYFPKISIYLRDENSSRSFRITILPQLYIQPMMGAGLNYECYRFGISPSTNALVIGATVMEGFYVIFDRAQKRVGFAASPCAEIAGAAVSEISGPFSTEDVASNCVPAQSLSEPILWIVSYALMSVCGAILLVLIVLLLLPFRCQRRPRDPEVVNDESSLVRHRWK
CTFs derived from CT100 (α-like CTF) [3]: unable to convert APP CT100 to an α-CTF-like fragment
